US20230059181A1 (EPSILOGEN, published 2023)

T1: Human FcεRIα (Fc epsilon RI alpha), His-tagged (human, UniProt P12319 26-205)
T1 construct: also called FceRIa; hFcεR1
T1 sequence (looked up): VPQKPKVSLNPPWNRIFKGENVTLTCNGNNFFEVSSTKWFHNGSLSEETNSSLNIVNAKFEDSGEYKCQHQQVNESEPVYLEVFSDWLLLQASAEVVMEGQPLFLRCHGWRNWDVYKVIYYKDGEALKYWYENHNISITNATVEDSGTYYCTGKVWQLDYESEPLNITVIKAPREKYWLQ


Legend:
[1] = molecular target: T2, Human FcRn (neonatal Fc receptor) (human, UniProt P55899 24-297; P61769 21-119); test: SPR steady state, pH 6.0, FcRn amine-coupled, antibody as analyte; pH 6.0; 31.25 nM to 2000 nM antibody over hFcRn on the chip
T2 construct: also called hFcRn
Experimental: (§1) Antibodies were passed over the chip with increasing concentrations at a flow rate of 30 μl/min and at 25° C. The injection time was 40 s per concentration and the dissociation time was 75 s. […] Interactions were analysed using a steady state model (see FIGS. 19a to 19d for example data).

[2] = molecular target: T1, Human FcεRIα (Fc epsilon RI alpha), …; test: SPR single cycle, 1:1 fit, His-tagged receptor captured, antibody as analyte
Text: (§2) FcRs were captured on a CM5 sensor chip pre-coupled using a His capture kit (Cytiva, Uppsala, Sweden) using standard amine chemistry.
(§3) At the start of each cycle His-tagged Fc receptors diluted in HEPES buffered saline containing 0.05% v/v Surfactant P20 (HBS-P+) were loaded to a specified RU level (Table 7). A five point, three-fold dilution range of test antibody without regeneration between each concentration was used for each receptor tested. […] In all cases, antibodies were passed over the chip in increasing concentrations followed by a single dissociation step. Following dissociation, the chip was regenerated with two injections of Glycine pH 1.5. The signal from the reference channel Fc1 (blank) was subtracted from that of the Fc loaded with receptor to correct for differences in non-specific binding to the reference surface.

[3] = molecular target: T3, Human CD64 (FcγRI), His-tagged (human, UniProt P12314 16-288); test: as above
T3 construct: also called FcgRI; hFcγRI
Text: as §2, §3

[4] = molecular target: T4, HMW-MAA (high molecular weight-melanoma associated antigen) on A375 cells (UniProt Q6UVK1 30-2322); test: flow cytometry on A375 cells, FITC goat anti-human IgG secondary
T4 construct: whole, on cells; also called CSPG4; chondroitin sulfate proteoglycan 4
Experimental: (§4) A375 cells were cultured using standard methods. When A375 cells were confluent, the cells were harvested. In brief, cells were washed with PBS before incubation with TrypLE™ at 37° C. for 10 minutes to detach the cells from the flask. Cells were resuspended in 10 mL of media and centrifuged for 3 minutes at 250 g. Cells were then resuspended in 1 mL FACS buffer and counted on the Cellometer® to determine the cell number and viability. Following this, cells were diluted to 1×10⁶ cells per mL with FACS buffer, and 100 μL of this cell suspension plated per well on a plate.
(§5) Binding of purified IGEGs to A375 cells (ATCC, Virginia, US) was assessed by flow cytometry using a Attune® NxT Acoustic Focusing Cytometer running Attune Software V3.1.2 (ThermoFisher Scientific, Loughborough, UK). […] Cells were washed and resuspended in FACS buffer and then acquired on the Attune® NxT Acoustic Focusing Cytometer. The data was analysed using FlowJo™ Software Version 10 (Becton, Dickinson and Company, New Jersey, US) and GraphPad Prism 8 (GraphPad Software, California, US).

[5] = molecular target: T5, Human CD16B (FcγRIIIB), His-tagged (human, UniProt O75015 17-200); test: SPR single cycle, steady state fit, His-tagged receptor captured, antibody as analyte
T5 construct: also called hFcγRIIIb
Text: as §2, §3

[6] = molecular target: T6, Human CD16A 176 Val (FcγRIIIA176Val), His-tagged (human, UniProt P08637 17-208); test: as above
T6 construct: also called FcγRIIIA (CD16A); hFcγRIIIa 176V
Text: as §2, §3

[7] = molecular target: T7, Human CD16A 176 Phe (FcγRIIIA176Phe), His-tagged (human, UniProt P08637 17-208); test: as above
T7 construct: also called hFcγRIIIa 176F
Text: as §2, §3

[8] = molecular target: T2, Human FcRn (neonatal Fc receptor); test: SPR (Biacore T200), hFcRn amine-coupled to CM5 chip, antibody as analyte 31.25-2000 nM, pH 6.0, raw sensorgrams [Continued]
Experimental: as §1

[9] = molecular target: T6, Human CD16A 176 Val (FcγRIIIA176Val), …; test: SPR (Biacore T200) single cycle, His-tagged FcγRIIIA176Val captured on anti-His chip, antibody as analyte, raw sensorgrams
Text: as §2, §3

[10] = molecular target: T4, HMW-MAA (high molecular weight-melanoma …); test: flow cytometry on A375 cells, FITC goat anti-human IgE secondary
Experimental: as §4, §5

[11] = molecular target: T5, Human CD16B (FcγRIIIB), His-tagged; test: SPR single cycle, His-tagged receptor captured, antibody as analyte
Text: as §2, §3

[12] = molecular target: T7, Human CD16A 176 Phe (FcγRIIIA176Phe), …; test: as above
Text: as §2, §3

[13] = molecular target: T2, Human FcRn (neonatal Fc receptor); test: SPR (Biacore T200), hFcRn amine-coupled to CM5 chip, antibody as analyte 31.25-2000 nM, pH 6.0, raw sensorgrams
Experimental: as §1

[14] = molecular target: T3, Human CD64 (FcγRI), His-tagged; test: SPR (Biacore T200) single cycle kinetics, His-tagged FcγRI captured on anti-His chip, antibody as analyte 0.411-33.33 nM
Text: as §2, §3

T7 sequence (P08637 17-208 limits assumed): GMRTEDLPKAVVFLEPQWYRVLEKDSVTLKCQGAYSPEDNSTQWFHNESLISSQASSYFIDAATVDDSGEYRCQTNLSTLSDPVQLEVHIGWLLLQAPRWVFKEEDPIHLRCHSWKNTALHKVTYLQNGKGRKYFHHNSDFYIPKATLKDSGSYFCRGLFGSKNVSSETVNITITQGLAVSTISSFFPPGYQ
T4 sequence (Q6UVK1 30-2322): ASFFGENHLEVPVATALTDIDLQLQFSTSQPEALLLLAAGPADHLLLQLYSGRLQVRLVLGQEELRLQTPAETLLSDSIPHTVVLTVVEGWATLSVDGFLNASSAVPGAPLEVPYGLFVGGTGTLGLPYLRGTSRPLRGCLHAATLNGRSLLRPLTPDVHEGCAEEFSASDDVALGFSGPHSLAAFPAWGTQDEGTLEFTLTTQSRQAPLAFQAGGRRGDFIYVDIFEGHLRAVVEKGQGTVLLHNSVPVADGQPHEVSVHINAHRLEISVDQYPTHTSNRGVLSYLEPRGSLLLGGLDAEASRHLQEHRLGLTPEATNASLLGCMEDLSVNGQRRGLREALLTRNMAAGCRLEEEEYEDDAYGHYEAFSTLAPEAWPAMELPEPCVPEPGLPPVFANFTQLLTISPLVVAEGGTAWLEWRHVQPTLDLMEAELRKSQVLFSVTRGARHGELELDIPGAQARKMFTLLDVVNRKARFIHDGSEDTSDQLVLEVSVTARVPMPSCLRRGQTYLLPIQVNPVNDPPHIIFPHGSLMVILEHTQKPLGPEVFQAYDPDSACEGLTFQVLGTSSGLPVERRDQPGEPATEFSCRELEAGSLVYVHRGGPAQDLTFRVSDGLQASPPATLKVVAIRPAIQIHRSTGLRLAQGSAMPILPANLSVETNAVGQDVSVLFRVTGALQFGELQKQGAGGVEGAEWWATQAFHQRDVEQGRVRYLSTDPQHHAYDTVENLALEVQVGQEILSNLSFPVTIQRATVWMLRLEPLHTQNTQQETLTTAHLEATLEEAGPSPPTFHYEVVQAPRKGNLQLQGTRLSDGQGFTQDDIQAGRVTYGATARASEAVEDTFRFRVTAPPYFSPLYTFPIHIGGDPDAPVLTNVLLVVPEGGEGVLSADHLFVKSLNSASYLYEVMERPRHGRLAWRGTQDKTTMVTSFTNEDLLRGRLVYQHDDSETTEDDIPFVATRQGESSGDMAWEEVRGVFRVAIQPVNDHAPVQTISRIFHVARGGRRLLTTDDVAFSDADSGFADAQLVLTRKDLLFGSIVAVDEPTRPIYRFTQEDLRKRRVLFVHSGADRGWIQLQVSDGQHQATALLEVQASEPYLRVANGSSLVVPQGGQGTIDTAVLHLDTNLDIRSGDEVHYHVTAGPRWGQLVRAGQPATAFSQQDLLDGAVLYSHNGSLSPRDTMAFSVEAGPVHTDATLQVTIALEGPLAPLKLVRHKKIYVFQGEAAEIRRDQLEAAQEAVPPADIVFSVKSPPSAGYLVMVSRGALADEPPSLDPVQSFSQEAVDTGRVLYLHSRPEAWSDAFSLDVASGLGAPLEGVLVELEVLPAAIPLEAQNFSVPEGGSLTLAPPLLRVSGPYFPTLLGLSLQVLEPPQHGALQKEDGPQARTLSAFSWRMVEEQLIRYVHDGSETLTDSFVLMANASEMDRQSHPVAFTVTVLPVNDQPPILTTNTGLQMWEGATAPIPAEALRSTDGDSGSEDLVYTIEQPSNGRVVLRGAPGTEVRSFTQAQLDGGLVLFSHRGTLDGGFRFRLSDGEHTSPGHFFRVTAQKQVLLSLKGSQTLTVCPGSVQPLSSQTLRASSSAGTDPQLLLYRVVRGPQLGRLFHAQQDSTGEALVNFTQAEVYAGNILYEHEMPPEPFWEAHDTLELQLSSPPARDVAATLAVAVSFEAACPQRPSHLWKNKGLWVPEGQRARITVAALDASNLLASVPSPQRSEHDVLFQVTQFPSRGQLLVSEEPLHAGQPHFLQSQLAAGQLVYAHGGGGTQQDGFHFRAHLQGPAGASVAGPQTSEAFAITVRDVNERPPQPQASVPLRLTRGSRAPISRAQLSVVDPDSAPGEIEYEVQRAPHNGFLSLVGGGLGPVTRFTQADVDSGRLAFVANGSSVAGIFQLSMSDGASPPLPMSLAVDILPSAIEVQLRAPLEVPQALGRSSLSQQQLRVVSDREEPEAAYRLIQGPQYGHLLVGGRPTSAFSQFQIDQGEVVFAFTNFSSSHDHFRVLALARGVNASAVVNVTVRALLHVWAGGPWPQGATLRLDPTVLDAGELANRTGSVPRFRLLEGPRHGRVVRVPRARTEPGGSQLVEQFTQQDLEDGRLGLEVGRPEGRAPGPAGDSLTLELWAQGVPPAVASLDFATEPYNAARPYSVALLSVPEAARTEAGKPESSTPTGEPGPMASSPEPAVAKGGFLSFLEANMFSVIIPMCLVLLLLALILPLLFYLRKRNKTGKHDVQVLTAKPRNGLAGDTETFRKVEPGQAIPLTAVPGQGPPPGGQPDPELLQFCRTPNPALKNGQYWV
T6 sequence (P08637 17-208 F176V limits assumed): as the sequence (P08637 17-208 limits assumed) above, with F160V counted along it
T2 sequence (P55899 24-297 limits assumed, chain 1 of 2): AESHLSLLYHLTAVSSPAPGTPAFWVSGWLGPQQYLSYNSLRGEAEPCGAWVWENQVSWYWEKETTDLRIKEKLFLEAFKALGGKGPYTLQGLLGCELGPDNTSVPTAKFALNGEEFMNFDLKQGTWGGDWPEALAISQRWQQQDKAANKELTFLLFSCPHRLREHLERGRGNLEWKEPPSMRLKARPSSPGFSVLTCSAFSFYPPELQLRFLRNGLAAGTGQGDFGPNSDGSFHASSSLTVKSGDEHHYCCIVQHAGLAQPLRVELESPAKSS
T2 sequence (P61769 21-119 limits assumed, chain 2 of 2): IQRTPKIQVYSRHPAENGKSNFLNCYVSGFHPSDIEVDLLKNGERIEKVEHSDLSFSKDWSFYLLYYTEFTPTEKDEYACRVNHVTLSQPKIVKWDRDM
T5 sequence (O75015 17-200 limits assumed): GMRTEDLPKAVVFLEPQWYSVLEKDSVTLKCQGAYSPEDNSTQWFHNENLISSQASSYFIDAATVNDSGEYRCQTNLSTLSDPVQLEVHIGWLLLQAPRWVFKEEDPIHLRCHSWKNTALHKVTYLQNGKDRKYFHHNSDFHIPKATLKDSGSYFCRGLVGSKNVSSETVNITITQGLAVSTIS
T3 sequence (P12314 16-288 limits assumed): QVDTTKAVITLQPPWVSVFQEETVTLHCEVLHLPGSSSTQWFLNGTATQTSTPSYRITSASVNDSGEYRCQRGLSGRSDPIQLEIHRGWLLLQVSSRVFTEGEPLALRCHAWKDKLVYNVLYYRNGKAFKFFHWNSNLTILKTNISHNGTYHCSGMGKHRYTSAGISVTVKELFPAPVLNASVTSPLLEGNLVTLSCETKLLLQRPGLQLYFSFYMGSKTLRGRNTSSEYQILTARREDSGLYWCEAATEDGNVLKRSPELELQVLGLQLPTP

Binder | Kd [1] [nM] | Kd [2] [nM] | Kd [3] [nM] | binding result [4] | Kd [5] [nM] | Kd [6] [nM] | Kd [7] [nM] | binding result [8] | binding result [9] | binding result [10] | binding result [11] | binding result [12] | binding result [13] | binding result [14]
HMW-MAA_IGEG (HMW-MAA IgE IgG-Fc) (antibody, also called CH IGEG) heavy: not shown light: DIQLTQSPSFLSASVGDRVTITCKASQNVDTNVAWYQQKPGKAPKPLLFSASYRYTGVPSRFSGSGSGTDFTLTISSLQPEDFATYFCQQYNSYPLTFGGGTKVEIKRTVAAPSVFIFPPSDEQLKSGTASVVCLLNNFYPREAKVQWKVDNALQSGNSQESVTEQDSKDSTYSLSSTLTLSKADYEKHKVYACEVTHQGLSSPVTKSFNRGEC | 1020 | 0.599 | 1.63 | binds | 1480 | 386 | 665 |  |  |  |  |  |  | 
HMW-MAA_IGEG-C220S (HMW-MAA IgE-IgG-Fc C220S) (antibody) heavy: not shown light: DIQLTQSPSFLSASVGDRVTITCKASQNVDTNVAWYQQKPGKAPKPLLFSASYRYTGVPSRFSGSGSGTDFTLTISSLQPEDFATYFCQQYNSYPLTFGGGTKVEIKRTVAAPSVFIFPPSDEQLKSGTASVVCLLNNFYPREAKVQWKVDNALQSGNSQESVTEQDSKDSTYSLSSTLTLSKADYEKHKVYACEVTHQGLSSPVTKSFNRGEC | 1050 | 0.493 | 1.67 | binds | 1870 | 400 | 775 |  |  |  |  |  |  | 
HMW-MAA_IGEG-C220S-dFcRn (antibody) heavy: EVQLVQSGGGLVQPGGSLKLSCAVSGFTFSNYWMNWVRQAPGKGLEWVGEIRLKSNNFGRYYAESVKGRFTISRDDSKNTAYLQMNSLKTEDTAVYYCTSYGNYVGHYFDHWGQGTLVTVSSASTQSPSVFPLTRCCKNIPSNATSVTLGCLATGYFPEPVMVTWDTGSLNGTTMTLPATTLTLSGHYATISLLTVSGAWAKQMFTCRVAHTPSSTDWVDNKTFSVCSRDFTPPTVKILQSSCDGGGHFPPTIQLLCLVSGYTPGTINITWLEDGQVMDVDLSTASTTQEGELASTQSELTLSQKHWLSDRTYTCQVTYQGHTFEDSTKKCADSNPRGVSAYLSRPSPFDLFIRKSPTITCLVVDLAPSKGTVNLTWSRASGKPVNHSTRKEEKQRNGTLTVTSTLPVGTRDWIEGETYQCRVTHPHLPRALMRSTTKTSGPRAAPEVYAFATPEWPGSRDKRTLACLIQNFMPEDISVQWLHNEVQLPDARHSTTQPRKTKGSGFFVFSRLEVTRAEWEQKDEFICRAVHEAASPSQTVQRAVSVNPGKRSEPKSSDKTHTCPPCPAPELLGGPSVFLFPPKPKDTLMASRTPEVTCVVVDVSHEDPEVKFNWYVDGVEVHNAKTKPREEQYNSTYRVVSVLTVLAQDWLNGKEYKCKVSNKALPAPIEKTISKAKGQPREPQVYTLPPSREEMTKNQVSLTCLVKGFYPSDIAVEWESNGQPENNYKTTPPVLDSDGSFFLYSKLTVDKSRWQQGNVFSCSVMHEALHNAYTQKSLSLSPGK light: DIQLTQSPSFLSASVGDRVTITCKASQNVDTNVAWYQQKPGKAPKPLLFSASYRYTGVPSRFSGSGSGTDFTLTISSLQPEDFATYFCQQYNSYPLTFGGGTKVEIKRTVAAPSVFIFPPSDEQLKSGTASVVCLLNNFYPREAKVQWKVDNALQSGNSQESVTEQDSKDSTYSLSSTLTLSKADYEKHKVYACEVTHQGLSSPVTKSFNRGEC |  | 0.535 | 2.18 | binds | 2780 | 601 | 1160 | no binding (tested: 2000 nM) |  |  |  |  |  | 
HMW-MAA_IGEG-dFcRn (antibody, human IgG1, kappa) heavy: EVQLVQSGGGLVQPGGSLKLSCAVSGFTFSNYWMNWVRQAPGKGLEWVGEIRLKSNNFGRYYAESVKGRFTISRDDSKNTAYLQMNSLKTEDTAVYYCTSYGNYVGHYFDHWGQGTLVTVSSASTQSPSVFPLTRCCKNIPSNATSVTLGCLATGYFPEPVMVTWDTGSLNGTTMTLPATTLTLSGHYATISLLTVSGAWAKQMFTCRVAHTPSSTDWVDNKTFSVCSRDFTPPTVKILQSSCDGGGHFPPTIQLLCLVSGYTPGTINITWLEDGQVMDVDLSTASTTQEGELASTQSELTLSQKHWLSDRTYTCQVTYQGHTFEDSTKKCADSNPRGVSAYLSRPSPFDLFIRKSPTITCLVVDLAPSKGTVNLTWSRASGKPVNHSTRKEEKQRNGTLTVTSTLPVGTRDWIEGETYQCRVTHPHLPRALMRSTTKTSGPRAAPEVYAFATPEWPGSRDKRTLACLIQNFMPEDISVQWLHNEVQLPDARHSTTQPRKTKGSGFFVFSRLEVTRAEWEQKDEFICRAVHEAASPSQTVQRAVSVNPGKRSEPKSCDKTHTCPPCPAPELLGGPSVFLFPPKPKDTLMASRTPEVTCVVVDVSHEDPEVKFNWYVDGVEVHNAKTKPREEQYNSTYRVVSVLTVLAQDWLNGKEYKCKVSNKALPAPIEKTISKAKGQPREPQVYTLPPSREEMTKNQVSLTCLVKGFYPSDIAVEWESNGQPENNYKTTPPVLDSDGSFFLYSKLTVDKSRWQQGNVFSCSVMHEALHNAYTQKSLSLSPGK light: DIQLTQSPSFLSASVGDRVTITCKASQNVDTNVAWYQQKPGKAPKPLLFSASYRYTGVPSRFSGSGSGTDFTLTISSLQPEDFATYFCQQYNSYPLTFGGGTKVEIKRTVAAPSVFIFPPSDEQLKSGTASVVCLLNNFYPREAKVQWKVDNALQSGNSQESVTEQDSKDSTYSLSSTLTLSKADYEKHKVYACEVTHQGLSSPVTKSFNRGEC |  | 0.556 | 2.02 | binds | 2030 | 535 | 960 | no binding (tested: 2000 nM) |  |  |  |  |  | 
HMW-MAA_IgE (antibody, also called HMW-MAA IgE-WT; anti-HMW-MAA IgE) heavy: EVQLVQSGGGLVQPGGSLKLSCAVSGFTFSNYWMNWVRQAPGKGLEWVGEIRLKSNNFGRYYAESVKGRFTISRDDSKNTAYLQMNSLKTEDTAVYYCTSYGNYVGHYFDHWGQGTLVTVSSASTQSPSVFPLTRCCKNIPSNATSVTLGCLATGYFPEPVMVTWDTGSLNGTTMTLPATTLTLSGHYATISLLTVSGAWAKQMFTCRVAHTPSSTDWVDNKTFSVCSRDFTPPTVKILQSSCDGGGHFPPTIQLLCLVSGYTPGTINITWLEDGQVMDVDLSTASTTQEGELASTQSELTLSQKHWLSDRTYTCQVTYQGHTFEDSTKKCADSNPRGVSAYLSRPSPFDLFIRKSPTITCLVVDLAPSKGTVNLTWSRASGKPVNHSTRKEEKQRNGTLTVTSTLPVGTRDWIEGETYQCRVTHPHLPRALMRSTTKTSGPRAAPEVYAFATPEWPGSRDKRTLACLIQNFMPEDISVQWLHNEVQLPDARHSTTQPRKTKGSGFFVFSRLEVTRAEWEQKDEFICRAVHEAASPSQTVQRAVSVNPGK light: DIQLTQSPSFLSASVGDRVTITCKASQNVDTNVAWYQQKPGKAPKPLLFSASYRYTGVPSRFSGSGSGTDFTLTISSLQPEDFATYFCQQYNSYPLTFGGGTKVEIKRTVAAPSVFIFPPSDEQLKSGTASVVCLLNNFYPREAKVQWKVDNALQSGNSQESVTEQDSKDSTYSLSSTLTLSKADYEKHKVYACEVTHQGLSSPVTKSFNRGEC |  | 0.508 |  |  |  |  |  |  | no binding (tested: 3e-6 M (top point of FIG. 17D)) | binds | no binding (tested: 8000 nM) | no binding (tested: 8000 nM) | no binding (tested: 2000 nM) | no binding (tested: 33.33 nM)
